# B1: anti-human LAG-3 Fcab FS18-7-95 with truncated hinge and LALA mutation (designed binder)
# chain: TCPPCPAPEAAGGPSVFLFPPKPKDTLMISRTPEVTCVVVDVSHEDPEVKFNWYVDGVEVHNAKTKPREEQYNSTYRVVSVLTVLHQDWLNGKEYKCKVSNKALPAPIEKTISKAKGQPREPQVYTLPPSWDEPWGEDVSLTCLVKGFYPSDIAVEWESNGYQEDNYKTTPPVLDSDGSFFLYSKLTVPYDRWVWPDEFSCSVMHEALHNHYTQKSLSLSPG
# B2: anti-human LAG-3 Fcab FS18-7-78 with truncated hinge and LALA mutation (designed binder)
# chain: TCPPCPAPEAAGGPSVFLFPPKPKDTLMISRTPEVTCVVVDVSHEDPEVKFNWYVDGVEVHNAKTKPREEQYNSTYRVVSVLTVLHQDWLNGKEYKCKVSNKALPAPIEKTISKAKGQPREPQVYTLPPSWDEPWGEDVSLTCLVKGFYPSDIAVEWESNGYKEENYKTTPPVLDSDGSFFLYSKLTVPYDRWVWPDEFSCSVMHEALHNHYTQKSLSLSPG
# B3: anti-human LAG-3 Fcab FS18-7-65 with truncated hinge and LALA mutation (designed binder)
# chain: TCPPCPAPEAAGGPSVFLFPPKPKDTLMISRTPEVTCVVVDVSHEDPEVKFNWYVDGVEVHNAKTKPREEQYNSTYRVVSVLTVLHQDWLNGKEYKCKVSNKALPAPIEKTISKAKGQPREPQVYTLPPSWDEPWGEDVSLTCLVKGFYPSDIAVEWESNGYAEYNYKTTPPVLDSDGSFFLYSKLTVPYDRWVWPDEFSCSVMHEALHNHYTQKSLSLSPG
# B4: anti-human LAG-3 Fcab FS18-7-88 with truncated hinge and LALA mutation (designed binder)
# chain: TCPPCPAPEAAGGPSVFLFPPKPKDTLMISRTPEVTCVVVDVSHEDPEVKFNWYVDGVEVHNAKTKPREEQYNSTYRVVSVLTVLHQDWLNGKEYKCKVSNKALPAPIEKTISKAKGQPREPQVYTLPPSWDEPWGEDVSLTCLVKGFYPSDIAVEWESNGVPELNVKTTPPVLDSDGSFFLYSKLTVPYDRWVWPDEFSCSVMHEALHNHYTQKSLSLSPG
# B5: anti-human LAG-3 Fcab FS18-7-33 with truncated hinge and LALA mutation (designed binder)
# chain: TCPPCPAPEAAGGPSVFLFPPKPKDTLMISRTPEVTCVVVDVSHEDPEVKFNWYVDGVEVHNAKTKPREEQYNSTYRVVSVLTVLHQDWLNGKEYKCKVSNKALPAPIEKTISKAKGQPREPQVYTLPPSWDEPWGEDVSLTCLVKGFYPSDIAVEWESNGQPEDNYKTTPPVLDSDGSFFLYSKLTVPYDRWVWPDEFSCSVMHEALHNHYTQKSLSLSPG
# B6: surrogate anti-mouse LAG-3 Fcab FS18-7-108-35 with truncated hinge, comprising LALA mutation (designed binder)
# chain: TCPPCPAPEAAGGPSVFLFPPKPKDTLMISRTPEVTCVVVDVSHEDPEVKFNWYVDGVEVHNAKTKPREEQYNSTYRVVSVLTVLHQDWLNGKEYKCKVSNKALPAPIEKTISKAKGQPREPQVYTLPPSWDEPWGEDVSLTCLVKGFYPSDISVEWESNGQPENNYKTTPPVLDSDGSFFLYSKLTVPFERWMWPDEFSCSVMHEALHNHYTQKSLSLSPG
# B7: anti-human LAG-3 Fcab FS18-7-58 with truncated hinge and LALA mutation (designed binder)
# chain: TCPPCPAPEAAGGPSVFLFPPKPKDTLMISRTPEVTCVVVDVSHEDPEVKFNWYVDGVEVHNAKTKPREEQYNSTYRVVSVLTVLHQDWLNGKEYKCKVSNKALPAPIEKTISKAKGQPREPQVYTLPPSWDEPWGEDVSLTCLVKGFYPSDIAVEWESNGYPEIEFKTTPPVLDSDGSFFLYSKLTVPYDRWVWPDEFSCSVMHEALHNHYTQKSLSLSPG
# B8: surrogate anti-mouse LAG-3 Fcab FS18-7-108-29 with truncated hinge, comprising LALA mutation (designed binder)
# chain: TCPPCPAPEAAGGPSVFLFPPKPKDTLMISRTPEVTCVVVDVSHEDPEVKFNWYVDGVEVHNAKTKPREEQYNSTYRVVSVLTVLHQDWLNGKEYKCKVSNKALPAPIEKTISKAKGQPREPQVYTLPPSWDEPWGEDVSLTCLVKGFYPSDIVVEWESNGQPENNYKTTPPVLDSDGSFFLYSKLTVPFERWMWPDEFSCSVMHEALHNHYTQKSLSLSPG
# B9: anti-human LAG-3 Fcab FS18-7-9 with truncated hinge and LALA mutation (designed binder)
# chain: TCPPCPAPEAAGGPSVFLFPPKPKDTLMISRTPEVTCVVVDVSHEDPEVKFNWYVDGVEVHNAKTKPREEQYNSTYRVVSVLTVLHQDWLNGKEYKCKVSNKALPAPIEKTISKAKGQPREPQVYTLPPSWDEPWGEDVSLTCLVKGFYPSDIAVEWESNGQPENNYKTTPPVLDSDGSFFLYSKLTVPYDRWVWPDEFSCSVMHEALHNHYTQKSLSLSPG
# B10: anti-human LAG-3 Fcab FS18-7-36 with truncated hinge and LALA mutation (designed binder)
# chain: TCPPCPAPEAAGGPSVFLFPPKPKDTLMISRTPEVTCVVVDVSHEDPEVKFNWYVDGVEVHNAKTKPREEQYNSTYRVVSVLTVLHQDWLNGKEYKCKVSNKALPAPIEKTISKAKGQPREPQVYTLPPSWDEPWGEDVSLTCLVKGFYPSDIAVEWESNGQPENNYKTTPPVLDSDGSYFLYSKLTVPYDRWVWPDEFSCSVMHEALHNHYTQKSLSLSPG
# B11: anti-human LAG-3 Fcab FS18-7-32 with truncated hinge and LALA mutation (designed binder)
# chain: TCPPCPAPEAAGGPSVFLFPPKPKDTLMISRTPEVTCVVVDVSHEDPEVKFNWYVDGVEVHNAKTKPREEQYNSTYRVVSVLTVLHQDWLNGKEYKCKVSNKALPAPIEKTISKAKGQPREPQVYTLPPSWDEPWGEDVSLTCLVKGFYPSEIAVEWESNGQPENNYKTTPPVLDSDGSFFLYSKLTVPYDRWVWPDEFSCSVMHEALHNHYTQKSLSLSPG
# B12: anti-human LAG-3 Fcab FS18-7-62 with truncated hinge and LALA mutation (designed binder)
# chain: TCPPCPAPEAAGGPSVFLFPPKPKDTLMISRTPEVTCVVVDVSHEDPEVKFNWYVDGVEVHNAKTKPREEQYNSTYRVVSVLTVLHQDWLNGKEYKCKVSNKALPAPIEKTISKAKGQPREPQVYTLPPSWDEPWGEDVSLTCLVKGFYPSDIAVEWESNGIPEWNYKTTPPVLDSDGSFFLYSKLTVPYDRWVWPDEFSCSVMHEALHNHYTQKSLSLSPG
# Legend:
# [1] = molecular target: human FcγRI (human) (UniProt P12314); experiment: SPR (Biacore T200), FcγR immobilised, 200 µg/ml analyte
# [2] = molecular target: human FcγRIII (human) (UniProt P08637); experiment: as above
# [3] = molecular target: human FcγRIIa (human) (UniProt P12318); experiment: SPR (Biacore T200), FcγR immobilised, 500 µg/ml analyte
# [4] = molecular target: human FcγRIIb (human) (UniProt P31994); experiment: as above
# [5] = molecular target: mouse LAG-3 expressed on cells (HEK cells expressing mLAG-3 or DO11.10 mLAG-3) (mouse) (UniProt Q61790); experiment: cell-based or functional assay
# [6] = molecular target: T1, human LAG-3 expressed on cells (DO11.10 or HEK 293 cells over-expressing human LAG-3) (human, UniProt P18627 23-525); experiment: cell-based or functional assay
# T1 sequence: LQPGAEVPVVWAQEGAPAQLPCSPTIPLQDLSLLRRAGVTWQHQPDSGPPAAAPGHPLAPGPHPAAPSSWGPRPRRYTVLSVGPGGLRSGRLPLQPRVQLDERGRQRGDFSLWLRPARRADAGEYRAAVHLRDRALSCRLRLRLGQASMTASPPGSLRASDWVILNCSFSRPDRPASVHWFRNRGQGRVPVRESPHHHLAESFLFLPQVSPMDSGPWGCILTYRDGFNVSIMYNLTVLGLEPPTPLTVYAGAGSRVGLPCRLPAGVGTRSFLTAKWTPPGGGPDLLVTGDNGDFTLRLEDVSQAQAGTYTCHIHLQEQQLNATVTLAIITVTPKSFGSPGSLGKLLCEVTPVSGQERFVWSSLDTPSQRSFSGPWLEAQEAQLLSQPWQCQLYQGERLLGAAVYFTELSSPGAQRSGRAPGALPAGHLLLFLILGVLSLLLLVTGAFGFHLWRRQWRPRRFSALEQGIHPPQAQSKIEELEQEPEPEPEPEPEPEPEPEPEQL
# [7] = molecular target: T2, mouse LAG-3 expressed on cells (HEK cells expressing mLAG-3 or DO11.10 mLAG-3) (mouse, UniProt Q61790 24-521); experiment: cell-based or functional assay
# T2 sequence: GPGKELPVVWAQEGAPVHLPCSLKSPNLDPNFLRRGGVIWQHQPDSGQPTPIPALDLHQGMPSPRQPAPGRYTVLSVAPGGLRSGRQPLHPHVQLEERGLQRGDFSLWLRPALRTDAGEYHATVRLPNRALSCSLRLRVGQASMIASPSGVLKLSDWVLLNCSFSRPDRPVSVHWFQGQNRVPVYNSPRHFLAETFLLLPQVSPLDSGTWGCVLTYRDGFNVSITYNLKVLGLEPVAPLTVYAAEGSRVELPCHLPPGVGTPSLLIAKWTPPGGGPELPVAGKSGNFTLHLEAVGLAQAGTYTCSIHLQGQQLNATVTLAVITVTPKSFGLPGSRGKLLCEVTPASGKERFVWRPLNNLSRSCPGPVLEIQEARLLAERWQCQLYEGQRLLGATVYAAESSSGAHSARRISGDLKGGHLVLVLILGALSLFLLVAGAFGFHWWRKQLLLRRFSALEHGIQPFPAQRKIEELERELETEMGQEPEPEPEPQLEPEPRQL
# Sequence of human FcγRIIb (human) (P31994 46-217 limits assumed): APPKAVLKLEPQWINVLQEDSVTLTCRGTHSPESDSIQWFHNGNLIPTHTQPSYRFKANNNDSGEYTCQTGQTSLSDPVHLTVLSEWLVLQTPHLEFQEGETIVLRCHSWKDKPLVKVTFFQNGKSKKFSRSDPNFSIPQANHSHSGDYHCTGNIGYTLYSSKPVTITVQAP
# Sequence of human FcγRIIa (human) (P12318 36-218 limits assumed): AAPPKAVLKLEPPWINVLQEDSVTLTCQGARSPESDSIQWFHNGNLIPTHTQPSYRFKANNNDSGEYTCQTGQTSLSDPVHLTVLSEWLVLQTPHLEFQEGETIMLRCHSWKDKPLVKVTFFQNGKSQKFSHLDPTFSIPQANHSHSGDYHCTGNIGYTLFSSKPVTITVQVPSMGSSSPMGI
# Sequence of human FcγRIII (human) (P08637 17-208 limits assumed): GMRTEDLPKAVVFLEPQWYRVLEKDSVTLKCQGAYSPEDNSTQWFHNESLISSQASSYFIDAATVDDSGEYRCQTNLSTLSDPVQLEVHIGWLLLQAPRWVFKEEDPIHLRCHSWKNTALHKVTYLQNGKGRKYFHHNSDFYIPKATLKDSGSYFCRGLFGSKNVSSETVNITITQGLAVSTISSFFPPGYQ
# Sequence of human FcγRI (human) (P12314 16-288 limits assumed): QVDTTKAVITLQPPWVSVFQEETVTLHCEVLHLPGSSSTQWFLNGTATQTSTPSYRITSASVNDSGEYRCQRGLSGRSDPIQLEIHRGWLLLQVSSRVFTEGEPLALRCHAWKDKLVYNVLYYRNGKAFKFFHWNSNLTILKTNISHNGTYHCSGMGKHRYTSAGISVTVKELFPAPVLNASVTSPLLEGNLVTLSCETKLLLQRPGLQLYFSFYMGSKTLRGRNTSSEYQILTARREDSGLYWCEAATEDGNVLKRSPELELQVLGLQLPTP
molecule,measurement,setting,value
mock mAb LALA (control LALA IgG1 mAb) (antibody),Binding response at end of association (RU),[1],2 RU
same,Binding response at end of association (RU),[2],8 RU
same,Binding response at end of association (RU),[3],-12.7 RU
same,Binding response at end of association (RU),[4],-9.6 RU
"mock mAb IgG1 (wild type IgG1 isotype mAb, positive control without LALA) (antibody)",Binding response at end of association (RU),[1],26 RU
same,Binding response at end of association (RU),[2],44 RU
same,Binding response at end of association (RU),[3],13 RU
same,Binding response at end of association (RU),[4],17.7 RU
"benchmark anti-mouse LAG-3 mAb C9B7W (2B Scientific, BE0174-50MG) (antibody)","EC50 of mIL-2 release, DO11.10 T cell activation assay (mouse LAG-3)",[5],5.1 nM
same,Maximal IL-2 release,[5],48 pg/mL
B1,"EC50 of mIL-2 release, DO11.10 T cell activation assay (human LAG-3)",[6],0.8 nM
B2,"EC50 of mIL-2 release, DO11.10 T cell activation assay (human LAG-3)",[6],1 nM
B3,"EC50 of mIL-2 release, DO11.10 T cell activation assay (human LAG-3)",[6],1.1 nM
B4,"EC50 of mIL-2 release, DO11.10 T cell activation assay (human LAG-3)",[6],1.3 nM
B5,"EC50 of mIL-2 release, DO11.10 T cell activation assay (human LAG-3)",[6],1.1 nM
B6,"EC50 of mIL-2 release, DO11.10 T cell activation assay (mouse LAG-3)",[7],1.8 nM
B7,"EC50 of mIL-2 release, DO11.10 T cell activation assay (human LAG-3)",[6],1.3 nM
B8,"EC50 of mIL-2 release, DO11.10 T cell activation assay (mouse LAG-3)",[7],1.9 nM
B9,"EC50 of mIL-2 release, DO11.10 T cell activation assay (human LAG-3)",[6],1.2 nM
B10,"EC50 of mIL-2 release, DO11.10 T cell activation assay (human LAG-3)",[6],1.3 nM
B11,"EC50 of mIL-2 release, DO11.10 T cell activation assay (human LAG-3)",[6],1.7 nM
B12,"EC50 of mIL-2 release, DO11.10 T cell activation assay (human LAG-3)",[6],1.1 nM

# — US20190330344A1 (F STAR THERAPEUTICS, published 2019)
